One block for each binder: values may come before it. Primed or numbered codes have the meaning given here. Ends that are not written are not given here. Cy5.5 = Cy5.5: Cy5.5 fluorophore (fluorescent dye); Cy5.5″ = Cy5.5 fluorophore
How the values were obtained:
[1] = target: T1, Human epidermal growth factor receptor 2 (HER2) (human, UniProt P04626 23-1255); experiment: confocal microscopy, 10 µM FITC-labeled peptide on Flo1-HER2 cells against Q-hTERT control cells
T1 construct: whole, on cells; also called ErbB2
Protocol: Flo-1-Her2 and Q-hTERT cells were seeded with ˜7,500 cells in 12-well plates with 1.5 mm thick glass cover slides, and grown to ˜70% confluence. The cells were gently washed with cold PBS before adding the peptide. 10 μM of FITC-labeled peptide was added to each well and incubated at 4° C. for 1 hour. After incubation, the cells were washed 3× with PBS, fixed in ice-cold 4% PFA for 10 min, and washed 1× with PBS. Subsequently, the cells were embedded on microscope slides with ProLong Gold reagent containing DAPI (Invitrogen), and the slides where analyzed with a Leica TCS SP5 confocal microscope using 63× oil immersion objective (Leica Microsystems, Leider Lane IL). The FITC-labeled peptides and anti-HER2 antibody were tested in quadruplicate.
We attached a FITC label to each peptide, and imaged binding to Flo1-HER2 and Q-hTERT cells (control) using confocal microscopy. Western blot of these cells show difference in HER2 expression, FIG. 1B. We selected KSPNPRF based on the highest mean fluorescence intensity with binding to Flo1-HER2, FIG. 1C. From our model, this peptide binds to HER2 domain 3. […] The fluorescence emission peak occurs at 708 nm in the NIR spectrum. For both peptides, we achieved >98% purity with HPLC, and measured an experimental mass-to-charge (m/z) ratio on mass spectrometry of 1794.98, which agrees with expected values, FIG. 8A,B.

[2] = target: T2, HER2 over expressed in mouse colonic neoplasia (CPC;Apc mice) (mouse, UniProt P70424 23-1256); experiment: fluorescence imaging of mouse colon after intravenous KSP*-Cy5.5, n=4 mice
T2 construct: whole, on cells; no isolated mouse HER2 was tested; also called mouse HER2
T2 sequence (P70424 23-1256): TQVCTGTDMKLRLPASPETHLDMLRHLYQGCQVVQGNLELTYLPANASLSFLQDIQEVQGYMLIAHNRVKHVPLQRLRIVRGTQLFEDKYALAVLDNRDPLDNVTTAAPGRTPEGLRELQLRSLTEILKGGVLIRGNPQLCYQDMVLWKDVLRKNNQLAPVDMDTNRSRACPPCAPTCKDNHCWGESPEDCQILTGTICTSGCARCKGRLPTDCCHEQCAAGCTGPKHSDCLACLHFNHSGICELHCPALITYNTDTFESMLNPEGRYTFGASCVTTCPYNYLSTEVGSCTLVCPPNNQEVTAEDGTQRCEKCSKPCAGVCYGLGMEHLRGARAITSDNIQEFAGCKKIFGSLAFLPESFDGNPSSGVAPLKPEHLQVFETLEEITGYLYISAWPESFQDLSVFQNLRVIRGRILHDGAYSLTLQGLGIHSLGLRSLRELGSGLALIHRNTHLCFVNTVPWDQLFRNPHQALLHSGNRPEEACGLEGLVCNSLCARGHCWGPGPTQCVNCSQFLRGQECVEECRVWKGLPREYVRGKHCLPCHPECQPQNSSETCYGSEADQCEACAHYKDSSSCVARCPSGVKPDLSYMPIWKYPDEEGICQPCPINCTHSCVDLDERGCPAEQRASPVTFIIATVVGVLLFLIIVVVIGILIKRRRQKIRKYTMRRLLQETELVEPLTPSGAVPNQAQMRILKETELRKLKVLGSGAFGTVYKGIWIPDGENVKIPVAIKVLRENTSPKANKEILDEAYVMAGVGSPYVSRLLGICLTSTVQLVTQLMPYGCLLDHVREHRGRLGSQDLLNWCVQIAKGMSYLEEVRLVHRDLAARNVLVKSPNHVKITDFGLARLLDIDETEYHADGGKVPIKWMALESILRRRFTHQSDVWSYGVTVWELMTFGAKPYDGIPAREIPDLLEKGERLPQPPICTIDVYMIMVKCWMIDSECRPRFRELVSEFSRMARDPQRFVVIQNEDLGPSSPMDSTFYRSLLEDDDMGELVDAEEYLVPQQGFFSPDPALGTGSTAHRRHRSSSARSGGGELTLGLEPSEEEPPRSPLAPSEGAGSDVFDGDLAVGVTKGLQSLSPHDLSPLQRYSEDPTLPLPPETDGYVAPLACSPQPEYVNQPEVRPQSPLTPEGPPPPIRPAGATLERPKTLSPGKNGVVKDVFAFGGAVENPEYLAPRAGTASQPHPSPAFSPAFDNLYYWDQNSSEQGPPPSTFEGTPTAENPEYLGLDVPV

[3] = target: T1, Human epidermal growth factor receptor …; experiment: flow cytometry on HT29 cells, apparent dissociation constant, 0-200 nM peptide, 4 °C 1 h
Protocol: We measured the apparent dissociation constant of the HER2 peptide reagent to HT29 cells as an assessment of binding affinity. KSP*-Cy5.5 was serially diluted in PBS at concentrations of 0, 5, 10, 25, 50, 100, and 200 nM. ˜105 HT29 cells were incubated with KSP*-Cy5.5 at 4° C. for 1 hour and washed with cold PBS. The mean fluorescence intensities were measured with flow cytometry (BD® LSRII, BD Biosciences). The equilibrium dissociation constant kd=1/ka was calculated by performing a least squares fit of the data to the non-linear equation I, (I0+Imaxka[X])/([…]). I0 and Imax are the initial and maximum fluorescence intensities, corresponding to no peptide reagent and at saturation, respectively, and [X] represents the concentration of the bound peptide reagent. Graphpad prism analysis software (Graphpad Software Inc, La Jolla, Calif.) was used to calculate kd and ka.
We evaluated the binding parameters of KSP*-Cy5.5 to HT29 cells using flow cytometry.

[4] = target: T2, HER2 over expressed in mouse colonic …; experiment: in vivo NIR fluorescence endoscopy, topical peptide, n=15 adenomas in mice, target-to-background ratio
Protocol: Mouse imaging studies were performed with approval of the University of Michigan Committee on the Use and Care of Animals (UCUCA). The mice were housed in pathogen-free conditions and supplied water ad libitum under controlled conditions of humidity (50±10%), light (12/12 hour light/dark cycle) and temperature (25° C.). Anesthesia was induced and maintained via a nose cone with inhaled isoflurane mixed with oxygen at a concentration of 2-4% at a flow rate of ˜0.5 L/min. The colon was first rinsed with tap water to remove mucous and debris. White light illumination was used first to identify anatomic landmarks, including polyps, mucosal folds, colonic segment, and distance of endoscope tip from anus, to register the in vivo images with histology. […] During imaging, we recorded the 1) distance between the endoscope tip and the anus and 2) clockwise location of each region of high intensity. […]
We evaluated specific binding of KSP*-Cy5.5 to colonic adenomas that over express HER2 in CPC; Apc mice This mouse was genetically engineered to somatically delete an Apc allele under Cre regulation, and develops polypoid and flat adenomas spontaneously in the colon. […] Imaging was performed in vivo using a small animal endoscope that is sensitive to NIR fluorescence. […]

[5] = target: HER2 over expressed in mouse colonic neoplasia (CPC;Apc mice) (mouse) (UniProt P70424); experiment: in vivo NIR fluorescence endoscopy, topical peptide, n=7 adenomas in mice, target-to-background ratio
Sequence of HER2 over expressed in mouse colonic neoplasia (CPC;Apc mice) (mouse) (P70424 23-1256): as above

binding result [1]: binds
B1: FITC-labeled KSPNPRF (PEP1) (peptide)
peptide: KSPNPRF
modifications: also: FITC label, site of attachment not given here
notes: also called FITC-labeled peptide

fold mean fluorescence intensity, adenomas against surrounding normal mucosa [2]: 5.03 fold
Kd [3]: 21 nM
mean T/B ratio [4]: 3.64
B2: KSP*-Cy5.5 (KSPNPRF peptide labeled with Cy5.5 fluorophore via a GGGSK linker on the C-terminus) (peptide)
peptide: KSPNPRFGGGSK(Cy5.5)-NH2
notes: Synthetic L-amino-acid peptide, Fmoc solid-phase synthesis; also called HER2 peptide reagent; KSP*-Cy5.5 peptide reagent

mean T/B ratio [5]: 1.46
B3: PPS*-Cy5.5 (scrambled control peptide PPSNFKR linked to Cy5.5 via GGGSK) (peptide)
peptide: PPSNFKRGGGSK(Cy5.5″)-NH2
